{"source": "paper PMC2756145", "binders": {"B1": {"name": "9mer_T4A (ssDNA)", "DNA": "GGTAACGGT"}, "B2": {"name": "9mer_T9A (ssDNA)", "DNA": "GGTTACGGA"}, "B3": {"name": "7mer-5' (ssDNA)", "DNA": "CGGTTAC"}, "B4": {"name": "8mer-3' (ssDNA)", "DNA": "GGTTACGG"}, "B5": {"name": "12mer_C6G (ssDNA)", "DNA": "GGTTAGGGTTAC"}, "B6": {"name": "15mer (ssDNA)", "DNA": "GGTTACGGTTACGGT"}, "B7": {"name": "7mer-3' (ssDNA)", "DNA": "GGTTACG"}, "B8": {"name": "9mer-3' (ssDNA)", "DNA": "GGTTACGGT"}, "B9": {"name": "9mer_G7C (ssDNA)", "DNA": "GGTTACCGT"}, "B10": {"name": "11mer-3' (ssDNA)", "DNA": "GGTTACGGTTA"}, "B11": {"name": "9mer_G2C (ssDNA)", "DNA": "GCTTACGGT"}, "B12": {"name": "6mer (ssDNA)", "DNA": "GGTTAC"}, "B13": {"name": "8mer-5' (ssDNA)", "DNA": "ACGGTTAC"}, "B14": {"name": "12mer_A5T (ssDNA)", "DNA": "GGTTTCGGTTAC"}, "B15": {"name": "24mer (ssDNA)", "DNA": "GGTTACGGTTACGGTTACGGTTAC"}, "B16": {"name": "9mer_G1C (ssDNA)", "DNA": "CGTTACGGT"}, "B17": {"name": "10mer-3' (ssDNA)", "DNA": "GGTTACGGTT"}, "B18": {"name": "12mer_G1C (ssDNA)", "DNA": "CGTTACGGTTAC"}, "B19": {"name": "9mer_C6G (ssDNA)", "DNA": "GGTTAGGGT"}, "B20": {"name": "9mer_G8C (ssDNA)", "DNA": "GGTTACGCT"}, "B21": {"name": "C-rich complementary sequence (ssDNA)", "DNA": "CCAATGCCCAATGC"}, "B22": {"name": "9mer_T3A (ssDNA)", "DNA": "GGATACGGT"}}, "key": {"Pot1pC [1]": {"target": "T1, Pot1pC (Schizosaccharomyces pombe, UniProt O13988 178-389)", "T1 sequence": "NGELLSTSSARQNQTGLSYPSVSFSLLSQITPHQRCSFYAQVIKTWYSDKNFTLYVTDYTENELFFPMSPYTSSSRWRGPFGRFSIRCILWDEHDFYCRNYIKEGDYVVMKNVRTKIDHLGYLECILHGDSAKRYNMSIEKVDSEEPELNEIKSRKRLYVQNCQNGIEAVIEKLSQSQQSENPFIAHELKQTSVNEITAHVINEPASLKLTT", "assay": "EMSA"}, "Pot1pC [2]": {"target": "T1, Pot1pC", "assay": "EMSA", "remark": "listed apart in the source"}, "Pot1-DBD_V97A": {"target": "T2, Pot1-DBD_V97A (Schizosaccharomyces pombe, UniProt O13988 1-389, V97A)", "T2 sequence": "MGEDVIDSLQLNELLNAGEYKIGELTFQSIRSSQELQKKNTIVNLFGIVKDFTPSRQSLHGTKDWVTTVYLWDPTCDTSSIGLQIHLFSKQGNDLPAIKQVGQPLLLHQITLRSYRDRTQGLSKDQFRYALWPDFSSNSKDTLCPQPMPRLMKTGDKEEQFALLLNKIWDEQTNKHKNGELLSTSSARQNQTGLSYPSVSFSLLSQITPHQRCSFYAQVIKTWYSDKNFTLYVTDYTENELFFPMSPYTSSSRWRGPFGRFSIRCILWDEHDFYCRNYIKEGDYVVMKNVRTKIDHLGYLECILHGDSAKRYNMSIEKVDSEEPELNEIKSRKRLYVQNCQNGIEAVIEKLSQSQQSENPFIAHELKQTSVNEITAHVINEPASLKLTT", "assay": "filter binding"}, "Pot1-DBD": {"target": "T3, Pot1-DBD (Schizosaccharomyces pombe, UniProt O13988 1-389)", "T3 sequence": "T2 sequence with A97V", "assay": "filter binding"}, "Pot1-DBD_Q91A": {"target": "T4, Pot1-DBD_Q91A (Schizosaccharomyces pombe, UniProt O13988 1-389, Q91A)", "T4 sequence": "T2 sequence with Q91A, A97V", "assay": "filter binding"}, "Pot1pN_S123A": {"target": "T5, Pot1pN_S123A (Schizosaccharomyces pombe, UniProt O13988 1-185, S123A)", "T5 sequence": "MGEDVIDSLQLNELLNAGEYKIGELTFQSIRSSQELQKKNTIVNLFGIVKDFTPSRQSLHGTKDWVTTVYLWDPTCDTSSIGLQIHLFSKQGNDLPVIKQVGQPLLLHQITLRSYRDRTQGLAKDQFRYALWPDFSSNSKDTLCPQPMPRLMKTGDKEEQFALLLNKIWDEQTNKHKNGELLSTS", "assay": "filter binding"}, "Pot1pN_T62A": {"target": "T6, Pot1pN_T62A (Schizosaccharomyces pombe, UniProt O13988 1-185, T62A)", "T6 sequence": "T5 sequence with T62A, A123S", "assay": "filter binding"}, "Pot1pN_Y115A": {"target": "T7, Pot1pN_Y115A (Schizosaccharomyces pombe, UniProt O13988 1-185, Y115A)", "T7 sequence": "T5 sequence with Y115A, A123S", "assay": "filter binding"}, "Pot1pN": {"target": "T8, Pot1pN (Schizosaccharomyces pombe, UniProt O13988 1-185)", "T8 sequence": "T5 sequence with A123S", "assay": "filter binding"}, "Pot1pN_D64A": {"target": "T9, Pot1pN_D64A (Schizosaccharomyces pombe, UniProt O13988 1-185, D64A)", "T9 sequence": "T5 sequence with D64A, A123S", "assay": "filter binding"}}, "note": "Where a chain is given by its changes, count along the chain named. Like-named read-outs stand apart in the source and are kept apart here."}
{"binder": "B1", "values": [{"measurement": "Kd", "setting": "Pot1pC [1]", "value": "700 ± 300", "unit": "nM"}]}
{"binder": "B2", "values": [{"measurement": "Kd", "setting": "Pot1pC [1]", "value": "2000 ± 400", "unit": "nM"}]}
{"binder": "B3", "values": [{"measurement": "Kd", "setting": "Pot1pC [2]", "value": "35000 ± 8000", "unit": "nM"}]}
{"binder": "B4", "values": [{"measurement": "Kd", "setting": "Pot1pC [1]", "value": "1900 ± 300", "unit": "nM"}]}
{"binder": "B5", "values": [{"measurement": "Kd", "setting": "Pot1-DBD_V97A", "value": "100 ± 10", "unit": "nM"}]}
{"binder": "B6", "values": [{"measurement": "binding result", "setting": "Pot1-DBD", "value": "binds"}, {"measurement": "Kd", "setting": "Pot1-DBD_Q91A", "value": "0.04 ± 0.003", "unit": "nM"}, {"measurement": "Kd", "setting": "Pot1-DBD_V97A", "value": "0.04 ± 0.004", "unit": "nM"}]}
{"binder": "B7", "values": [{"measurement": "Kd", "setting": "Pot1pC [2]", "value": "10500 ± 1900", "unit": "nM"}]}
{"binder": "B8", "values": [{"measurement": "Kd", "setting": "Pot1pC [1]", "value": "400 ± 70", "unit": "nM"}]}
{"binder": "B9", "values": [{"measurement": "Kd", "setting": "Pot1pC [1]", "value": "3000 ± 500", "unit": "nM"}]}
{"binder": "B10", "values": [{"measurement": "Kd", "setting": "Pot1pC [1]", "value": "600 ± 100", "unit": "nM"}]}
{"binder": "B11", "values": [{"measurement": "Kd", "setting": "Pot1pC [1]", "value": "3000 ± 600", "unit": "nM"}]}
{"binder": "B12", "values": [{"measurement": "Kd", "setting": "Pot1pN_S123A", "value": "100 ± 10", "unit": "nM"}, {"measurement": "Kd", "setting": "Pot1pN_T62A", "value": "500 ± 50", "unit": "nM"}, {"measurement": "Kd", "setting": "Pot1pN_Y115A", "value": "300 ± 20", "unit": "nM"}, {"measurement": "Kd", "setting": "Pot1pN", "value": "30 ± 20", "unit": "nM"}, {"measurement": "Kd", "setting": "Pot1pN_D64A", "value": "400 ± 30", "unit": "nM"}]}
{"binder": "B13", "values": [{"measurement": "Kd", "setting": "Pot1pC [2]", "value": "15000 ± 2000", "unit": "nM"}]}
{"binder": "B14", "values": [{"measurement": "Kd", "setting": "Pot1-DBD_V97A", "value": "50 ± 4", "unit": "nM"}]}
{"binder": "B15", "values": [{"measurement": "Kd", "setting": "Pot1-DBD_Q91A", "value": "0.06 ± 0.003", "unit": "nM"}, {"measurement": "Kd", "setting": "Pot1-DBD_V97A", "value": "0.06 ± 0.004", "unit": "nM"}]}
{"binder": "B16", "values": [{"measurement": "Kd", "setting": "Pot1pC [1]", "value": "1000 ± 100", "unit": "nM"}]}
{"binder": "B17", "values": [{"measurement": "Kd", "setting": "Pot1pC [1]", "value": "300 ± 40", "unit": "nM"}]}
{"binder": "B18", "values": [{"measurement": "Kd", "setting": "Pot1-DBD_Q91A", "value": "50 ± 6", "unit": "nM"}, {"measurement": "Kd", "setting": "Pot1-DBD_V97A", "value": "70 ± 7", "unit": "nM"}]}
{"binder": "B19", "values": [{"measurement": "Kd", "setting": "Pot1pC [1]", "value": "300 ± 50", "unit": "nM"}]}
{"binder": "B20", "values": [{"measurement": "Kd", "setting": "Pot1pC [1]", "value": "800 ± 200", "unit": "nM"}]}
{"binder": "B21", "values": [{"measurement": "binding result", "setting": "Pot1pC [1]", "value": "no binding"}]}
{"binder": "B22", "values": [{"measurement": "Kd", "setting": "Pot1pC [1]", "value": "600 ± 100", "unit": "nM"}]}
